Columns and labels:
Experiment in all cases: purified protein
[1] = substrate: CC(C)=CCNc1ncnc2c1ncn2[C@@H]1O[C@H](CO)[C@@H](O)[C@H]1O; conditions: ATP 1 mM, 37 °C, HEPES, NaCl, MgCl2, CaCl2
[2] = substrate: CN(C)c1ncnc2c1ncn2[C@@H]1O[C@H](CO)[C@@H](O)[C@H]1O; conditions: ATP 1 mM, 37 °C, HEPES, NaCl, MgCl2, CaCl2
[3] = substrate: CNc1ncnc2c1ncn2[C@@H]1O[C@H](CO)[C@@H](O)[C@H]1O; conditions: ATP 1 mM, 37 °C, HEPES, NaCl, MgCl2, CaCl2
[4] = substrate: CC(C)=CCNc1ncnc2c1ncn2[C@@H]1O[C@H](COP(=O)(O)O)[C@@H](O)[C@H]1O; conditions: 37 °C, HEPES, NaCl, MgCl2, 2-mercaptoethanol
[5] = substrate: CN(C)c1ncnc2c1ncn2[C@@H]1O[C@H](COP(=O)(O)O)[C@@H](O)[C@H]1O; conditions: 37 °C, HEPES, NaCl, MgCl2, 2-mercaptoethanol
[6] = substrate: CNc1ncnc2c1ncn2[C@@H]1O[C@H](COP(=O)(O)O)[C@@H](O)[C@H]1O; conditions: 37 °C, HEPES, NaCl, MgCl2, 2-mercaptoethanol

Row | Protein | Km [1] | kcat [1] | Km [2] | kcat [2] | Km [3] | kcat [3] | Km [4] | kcat [4] | Km [5] | kcat [5] | Km [6] | kcat [6]
1 | ADK (human adenosine kinase) (Homo sapiens) (protein) MTSVRENILFGMGNPLLDISAVVDKDFLDKYSLKPNDQILAEDKHKELFDELVKKFKVEYHAGGSTQNSIKVAQWMIQQPHKAATFFGCIGIDKFGEILKRKAAEAHVDAHYYEQNEQPTGTCAACITGDNRSLIANLAAANCYKKEKHLDLEKNWMLVEKARVCYIAGFFLTVSPESVLKVAHHASENNRIFTLNLSAPFISQFYKESLMKVMPYVDILFGNETEAATFAREQGFETKDIKEIAKKTQALPKMNSKRQRIVIFTQGRDDTIMATESEVTAFAVLDQDQKEIIDTNGAGDAFVGGFLSQLVSDKPLTECIRAGHYAASIIIRRTGCTFPEKPDFH | 10 ± 1.0 µM | 0.18 ± 0.018 s⁻¹ | 6.1 ± 0.31 µM | 0.27 ± 0.0024 s⁻¹ | 15 ± 1.8 µM | 0.28 ± 0.0063 s⁻¹ |  |  |  |  |  | 
2 | ADAL (hADAL, adenosine deaminase-like) (Homo sapiens) (protein) MIEAEEQQPCKTDFYSELPKVELHAHLNGSISSHTMKKLIAQKPDLKIHDQMTVIDKGKKRTLEECFQMFQTIHQLTSSPEDILMVTKDVIKEFADDGVKYLELRSTPRRENATGMTKKTYVESILEGIKQSKQENLDIDVRYLIAVDRRGGPLVAKETVKLAEEFFLSTEGTVLGLDLSGDPTVGQAKDFLEPLLEAKKAGLKLALHLSEIPNQKKETQILLDLLPDRIGHGTFLNSGEGGSLDLVDFVRQHRIPLELCLTSNVKSQTVPSYDQHHFGFWYSIAHPSVICTDDKGVFATHLSQEYQLAAETFNLTQSQVWDLSYESINYIFASDSTRSELRKKWNHLKPRVLHI |  |  |  |  |  |  | 35 ± 1.4 µM | 1.9 ± 0.066 s⁻¹ | 65 ± 1.7 µM | 2.6 ± 0.036 s⁻¹ | 47 ± 1.1 µM | 2.4 ± 0.068 s⁻¹

Reference: doi:10.1101/2024.05.23.595515v1
